Measurements reported in paper PMC3976318.

How the values were obtained:
[1] = molecular target: HA-MC4R G34A (novel rare variant, 101G>C) (human) (UniProt P32245)
[2] = molecular target: HA-MC4R (wild-type melanocortin 4 receptor, 3x HA tagged) (human) (UniProt P32245)

## α-melanocyte stimulating hormone (peptide)
[1]
  α-MSH EC50 for cAMP production (cAMP immunoassay dose-response, HEK cells stably expressing the receptor, three independent immunoassays): 43 nM
[2]
  α-MSH EC50 for cAMP production (cAMP immunoassay dose-response, HEK cells stably expressing the receptor, three independent immunoassays): 41.1 nM
